Results on 1 substance are retold here after IntAct's records for PubMed 18203820.

The target in the assay is djb11_human DNAJB11 (UniProt Q9UBS4).
Chain of djb11_human DNAJB11 (Q9UBS4 whole entry): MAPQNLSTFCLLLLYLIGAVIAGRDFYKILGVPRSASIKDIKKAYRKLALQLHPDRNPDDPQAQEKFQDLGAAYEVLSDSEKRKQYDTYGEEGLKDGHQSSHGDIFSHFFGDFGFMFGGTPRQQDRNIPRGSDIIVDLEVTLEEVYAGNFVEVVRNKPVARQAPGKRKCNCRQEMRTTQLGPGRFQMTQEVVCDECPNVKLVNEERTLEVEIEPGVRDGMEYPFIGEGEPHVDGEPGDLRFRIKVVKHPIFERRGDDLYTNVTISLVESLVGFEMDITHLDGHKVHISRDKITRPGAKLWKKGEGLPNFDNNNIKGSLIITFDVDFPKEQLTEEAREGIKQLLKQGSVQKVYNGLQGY

Consider “Endoplasmic reticulum chaperone BiP (Mesocricetus auratus (Golden hamster)), P07823 R197E”, for which the “effect of a mutation on the interaction” value is reported as “disrupting interaction”.
